The subject of one series is P16 promoter. The series is described as follows: p16 methylation (MSP/COBRA) after transient transfection. In kind it is cell-based, human. The following applies: SNU-398, transient co-transfection with dCas9, guide G2, 72 hours. The source says: (§1) In this example, a modified CRISPR/dCAS9 system for gene activation and demethylation was developed and tested with P16. The DiR localized in CEBPA locus (ecCEBPA) is repurposed to other specific gene target(s) for demethylation and reactivation. The RNA stem-loops (R2 and R5), interacting with DNMT1(1), were fused to the tetra- and stem-loop 2 in a single guide RNA (sgRNA) scaffold to obtain a modified sgRNA (MsgRNA, sgDiR in FIG. 1, also referred to as MsgDiR6 in Example 3 below). The hepatocellular carcinoma (HCC) cell line SNU-398, in which P16 is silenced by promoter methylation, was transiently transfected with dCas9 plasmid and one MsgRNA (using guide G2: […] (SEQ ID NO: 29), MsgRNA with guide G2 is shown as G2sgDiR in FIG. 1, as targeting portion) targeting the template strand of P16 promoter.
(§2) SNU-398 cells were seeded at a density of […] in 6-well plates 24 hours before transfection employing jetPRIME transfection reagent (Polyplus Transfection) as described by the manufacturer. 2 μg mix of sgRNA/MsgDiR and dCas9 plasmid(s) (sgRNA/MsgDiR: dCas9 molar ratio 1:1) were transfected into each well of cells. The culture medium was changed 12 hours after transfection. Alternatively, the Neon™ Transfection System (Thermo Fisher) was used for cell electroporation according to the manufacturer's instructions. The same plasmid amount and ratios were used in the Neon as in the jetPRIME transfection. The parameters used for the highest SNU-398 transfection efficiency were 0.7 to 1.5 million cells in 100 μl reagent, voltage 1550 V, width 35 ms and 1 pulse. The culture medium was changed 24 hours after transfection.
The methylation profiles of the p16 gene locus or the whole genome were assessed by bisulfite-conversion based assays. For DNA bisulfite conversion, 1.6-1.8 μg of genomic DNA of each sample was converted by the EpiTect Bisulfite Kit (Qiagen) following the manufacturer's instructions.
For Methylation-Specific PCR (MSP), both methylation specific primers and unmethylation specific primers of p16 were used for the PCR of the same bisulfite converted sample (the transient transfection samples in the sgRNA and MsgDiR1-8 screening assay). […] 7 min, 4° C. hold. […] 7 min, 4° C. hold. […] 7 min, 4° C. hold.

In another series the test system is P16. The series is described as follows: p16 mRNA qRT-PCR after transient transfection of sgRNA/MsgDiR with or without dCas9. In kind it is cell-based, human. The following applies: SNU-398, 72 hours; for P16 mRNA expression (qRT-PCR): transient co-transfection with dCas9, guide G2.
Text: as §1
This study transiently transfected dCas9 plasmid together with one MsgRNA plasmid (G2sgDiR) to SNU398 cells, culturing three days without selection for the positively transfected cells. Guide G2 targets one site in the template strand (also known as antisense strand) of P16 promoter; and was initially chosen for two reasons: 1) the sequence is one of the three guides used in a P16 gene study (3), and 2) G2 targets the P16 promoter region, the methylation and demethylation of which has been considered as an important factor for gene regulation.
All measurements were performed in triplicate.
as §2
(In general: In qPCR the cycle at which signal appears reflects the starting amount.)

Entries after “also recorded” stand apart in the source; their conditions may differ.

B1: MsgDiR7: R2-R2 modified sgRNA, SEQ ID NO: 54 (nucleic acid)
guide: NNNNNNNNNNNNNNNNNNNGUUUGAGAGCUACCCGGGACGCGGGUCCGGGACAGUAGCAAGUUCAAAUAAGGCUAGUCCGUUAUCAACUUCCCGGGACGCGGGUCCGGGACAGAAGUGGCACCGAGUCGGUGCUUUUUU
modifications: MsgDiR7 R2-R2 Sequence; (1)..(19) n is a, c, g, or u
Regarding B1, the “P16 DNA methylation / demethylation” value in the series on P16 promoter is “not effective”.

B2: MsgDiR6: R2-R5 modified sgRNA scaffold (CRISPR-DiR), SEQ ID NO: 53; tested with guide G2 (nucleic acid)
guide: NNNNNNNNNNNNNNNNNNNGUUUGAGAGCUACCCGGGACGCGGGUCCGGGACAGUAGCAAGUUCAAAUAAGGCUAGUCCGUUAUCAACUUCUGAGGCCUUGGCGAGGCUUCUAAGUGGCACCGAGUCGGUGCUUUUUU
modifications: MsgDiR6 R2-R5 Sequence; (1)..(19) n is a, c, g, or u
notes: tested with guide G2
B2: the “P16 DNA methylation / demethylation” value in the series on P16 promoter was “induces P16 demethylation”. Moreover, the entries for the “P16 mRNA expression (qRT-PCR)” value with P16 and in the series on P16 (listed as sgDiR (G2)) were “moderate activation of p16; also recorded: moderate gene activation” and “moderate activation”, respectively. In the series with P16 (transient transfection without dCas9), the “p16 activation in absence of dCas9” value is reported as “no effects”.

B3: MsgRNA: Example 1 modified sgRNA, guide G2, R2 in tetra-loop and R5 in stem loop 2, SEQ ID NO: 15; used with dCas9 (nucleic acid)
guide: GCACUCAAACACGCCUUUGCGUUUUAGAGCUACCCGGGACGCGGGUCCGGGACAGUAGCAAGUUAAAAUAAGGCUAGUCCGUUAUCAACUUCUGAGGCCUUGGCGAGGCUUCUAAGUGGCACCGAGUCGGUGCUUUUUU
modifications: MsgRNA
notes: used with dCas9
As for B3, the “P16 DNA methylation / demethylation” value in the series on P16 promoter is given as “loss of DNA methylation”; with P16 promoter (listed as CRISPR-R2R5 system) it was “demethylation”. For the same molecule, the “P16 mRNA expression (qRT-PCR)” value with P16 was “two-fold increase”; with P16 (listed as CRISPR-R2R5 system), “moderate gene activation”.

The record behind these values is patent US20220290139A1, “METHODS AND COMPOSITIONS FOR GENE SPECIFIC DEMETHYLATION AND ACTIVATION” (NATIONAL UNIVERSITY OF SINGAPORE, priority 2019, published 2022).
